The values that follow come from PMC12291119, “In Vitro Selection of Cyclized, Glycosylated Peptide Antigens That Tightly Bind HIV High Mannose Patch Antibodies” (ACS Central Science, 2025).

Assay in all cases: BLI; glycopeptides immobilized via biotin on a streptavidin biosensor; series of 2-fold dilutions of antibody
The target in experiment [1] is L1 glycopeptide (peptide 8).
Experiment [2] addresses H1 mutant with IGDIR changed to IAAIA (peptide 5).
Experiment [3] concerns the target H1 mutant without the glycans at the second and third glycosylation sites (peptide 4).
Experiment [4] addresses H22 glycopeptide (peptide 2).
Experiment [5] addresses H1 glycopeptide (peptide 1).
Experiment [6] has as its target H1 mutant without the glycan at the first of the three glycosylation sites (peptide 3).
The target in experiment [7] is acyclic H1 variant (peptide 7).
Experiment [8] concerns the target random scrambled version of the H1 sequence containing three glycans and cyclization (peptide 6).

B1: PGT128 (antibody, V domains shown)
VH: QPQLQESGPTLVEASETLSLTCAVSGDSTAACNSFWGWVRQPPGKGLEWVGSLSHCASYWNRGWTYHNPSLKSRLTLALDTPKNLVFLKLNSVTAADTATYYCARFGGEVLRYTDWPKPAWVDLWGRGTLVTVSS
VL: QSALTQPPSASGSPGQSITISCTGTSNNFVSWYQQHAGKAPKLVIYDVNKRPSGVPDRFSGSKSGNTASLTVSGLQTDDEAVYYCGSLVGNWDVIFGGGTKLTVL
The term Kd denotes the constant that tells how readily two partners part at equilibrium. A high value points to weaker binding. In the case of B1, the Kd in experiment [1] came out at 2.37 nM; in experiment [4], 16.9 nM; in experiment [5] it was 0.52 nM; in experiment [7], 90 nM; in experiment [8] it was 251 nM. The fold decrease in binding against H1 (peptide 1) in experiment [2] was found to be 26 fold; in experiment [3] it was 40 fold. Also, the fold loss of recognition against H1 (peptide 1) in experiment [6] was found to be 2 fold.
